In US20230095569A1 (ANTENGENE BIOLOGICS, published 2023):

Columns and labels:
[1] = target: T1, human Claudin18.2 (CLDN18.2) (human, UniProt P56856 1-261); assay: cell-based or functional assay
[2] = target: T1, human Claudin18.2 (CLDN18.2); assay: cell-based or functional assay; remark: listed apart in the source
[3] = target: T1, human Claudin18.2 (CLDN18.2); assay: cell-based or functional assay; remark: listed apart in the source
[4] = target: T1, human Claudin18.2 (CLDN18.2); assay: FACS on CHOK1-18.2 cells;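 for FACS MFI: antibody binding to the cells detected with a fluorescently labelled secondary antibody and read out as median fluorescence intensity by flow cytometry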
[5] = target: T1, human Claudin18.2 (CLDN18.2); assay: FACS on GAXC031 cells, antibody at 50 µg/ml
[6] = target: T1, human Claudin18.2 (CLDN18.2); assay: FACS on CHOK1-18.2 cells, antibody at 50 µg/ml
[7] = target: T1, human Claudin18.2 (CLDN18.2); assay: FACS on GAXC031 cells
[8] = target: T2, human Claudin18.1 (CLDN18.1) (human, UniProt P56856 1-261); assay: FACS (FIGS. 1A and 1B)
T2 construct: whole, on cells; also called human Claudine18.1

[9] = target: T2, human Claudin18.1 (CLDN18.1); assay: FACS on CHOK1-18.1 cells;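 note: test antibody binding to the cells detected by flow cytometry using a fluorescent dye-labelled secondary antibody, read out as median fluorescence intensity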
Experimental: (§1) The specificity and cross-reactivity of these subclones were confirmed with FACs analysis. […] Fluorescent dye-conjugated secondary antibody was used to detect the binding of the primary antibody with the cells. Median fluorescence intensity (MFI) was measured by FACs analysis.

[10] = target: T1, human Claudin18.2 (CLDN18.2); assay: FACS on CHOK1-18.2 cells; remark: listed apart in the source;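 for FACS MFI: antibody binding to the cells detected with a fluorescently labelled secondary antibody and read out as median fluorescence intensity by flow cytometry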
Experimental: as §1

Binder | ADCC EC50 [1] | Max tumor cell killing (% of control), ADCC [1] | CDC EC50 [2] | Max CDC induced tumor cell killing (% of control) [2] | IC50 of indirect ADC cytotoxicity [3] | Max inhibition % [3] | EC50 [4] | MAX MFI [5] | MAX MFI [6] | EC50 [7] | binding result [8] | FACS MFI [9] | FACS MFI [10]
chAb31 (antibody, V domains shown) VH: QIQLAQSGPELKKPGETVKISCKASGYSFTNYGMNWVKQAPGKGLKWMGWINTYSGETKYADDFKGRFDFSLETSARTAYLQIKNLKIEDTATYFCARRDAMDYWGQGTSVTVSS VL: DIVMTQAAPSVPVTPGESVSISCRSSKSLLNSNGNTYLYWFLQRPGQSPQLLIYRMSNLASGVPDRFSGSGSGTAFTLRISRVEAEDVGVYYCMQHLEFPFTFGSGTKLEIK | 8.16 nM | 78.8 % of control | 37.9 nM | 60.7 % of control | 2.35 nM | 91.7% | 5.17 nM | 3770 | 59900 | – | – | – | –
chAb17 (antibody, V domains shown) VH: QVQLKESGPGLVAPSQSLSITCTVSGFSLTSYAISWVRQPPGKGLEWLGEIWTGGGTNYNSALKSRLSISKDNSKSQVFLKMNSLQTDDTARYYCGRLSYGNSLDYWGQGTTLTVSS VL: DIVMTQSPSSLTVTAGEKVTMSCKSSQSLLNSGNQKNYLTWYQQKPGQPPKLLIYWASTRESGVPDRFTGSGSGTDFTLTVSSVQAEDLAVYYCQNNFIYPLTFGPGTKLELK | 2.46 nM | 60.6 % of control | 9.93 nM | 70.8 % of control | 0.88 nM | 92.4% | 4.74 nM | 4230 | 83800 | 94.2 nM | – | – | –
Ab10 (antibody, V domains shown, mouse monoclonal (hybridoma)) VH: EVMLVESGGGLVKPGGSLKLSCAASGFTFSSYTMSWVRQTPEKRLEWVATISVIGGNTYYVDSVKGRFTISRDKAKNTLYLQMSSLRSEDTALYYCARLGQTQRNAMDYWGQGTSVTVSS VL: DIVMTQSPSSLSVSAGEKVTMSCKSSQSLLNSGNQKNYLAWYQQKPGQPPKLLIYGASTRESGVPDRFTGSGSGTDFTLTISSVQAEDLAVYYCQNDYSYPLTFGAGTKLELK | – | – | – | – | – | – | – | – | – | – | no binding | 80.8 | 8400
chAb06 (antibody, V domains shown) VH: EVQLVASGGGLVKPGGSLKLSCAASGITFRSYAMSWVRQTPEKRLEWVATITDGGSYIFYPDNVKGRFTISGDHAKNNLYLQMSHLKSEDTALYFCVRLYYGNSFAYWGQGTLVTVSA VL: DIVMTQSPSSLTVTAGEKVTLNCKSSQSLFNSGNQKNYLTWYQQKPGQPPKLLIYWASTRESGVPDRFTGSGSGTDFTLTFSSVQAEDLAVYYCQNAYIYPFTFGSGTKLEIK | 3.01 nM | 40.6 % of control | 9.72 nM | 75.4 % of control | 0.61 nM | 91.8% | 5.42 nM | 5460 | 92800 | – | – | – | –
chAb10 (antibody, V domains shown) VH: EVMLVESGGGLVKPGGSLKLSCAASGFTFSSYTMSWVRQTPEKRLEWVATISVIGGNTYYVDSVKGRFTISRDKAKNTLYLQMSSLRSEDTALYYCARLGQTQRNAMDYWGQGTSVTVSS VL: DIVMTQSPSSLSVSAGEKVTMSCKSSQSLLNSGNQKNYLAWYQQKPGQPPKLLIYGASTRESGVPDRFTGSGSGTDFTLTISSVQAEDLAVYYCQNDYSYPLTFGAGTKLELK | 1.68 nM | 55.2 % of control | 2.69 nM | 82.7 % of control | 0.24 nM | 92.8% | 2.27 nM | 6940 | 80400 | 29.2 nM | – | – | –
chAb15 (antibody, V domains shown) VH: EVMLVESGGDLVKPGGSLKLSCAASGFTFSTYTMSWVRQTPEKRLEWVATIVGGGGYTYYLDSVKGRFTISRDNAKNTLYLQMISLRSEDTALYYCARMGLTQRNALDYWGQGTSITVSS VL: DIVMTQSPSSLSVSEGEKVTLNCKSSQSLFNSGNQKNYLAWYQQKPGQPPKLLIYGASTRESGVPDRFTGSGFGTDFTLTISSVQAEDLAVYYCQNDHTYPLTFGAGAKLELK | 2.65 nM | 36.5 % of control | 8.15 nM | 77.4 % of control | 0.38 nM | 92.4% | 4.64 nM | 6110 | 94000 | 31.9 nM | – | – | –
IMAB362 (Zolbetuximab) (antibody, V domains shown) VH: QVQLQQPGAELVRPGASVKLSCKASGYTFTSYWINWVKQRPGQGLEWIGNIYPSDSYTNYNQKFKDKATLTVDKSSSTAYMQLSSPTSEDSAVYYCTRSWRGNSFDYWGQGTTLTVSS VL: DIVMTQSPSSLTVTAGEKVTMSCKSSQSLLNSGNQKNYLTWYQQKPGQPPKLLIYWASTRESGVPDRFTGSGSGTDFTLTISSVQAEDLAVYYCQNDYSYPFTFGSGTKLEIKR | 36.1 nM | 30.7 % of control | 809 nM | 52.5 % of control | 4.75 nM | 81.8% | 5.69 nM | 742 | 49600 | 36.1 nM | – | – | –
chAb05 (antibody, V domains shown) VH: DVKLVESGEDLVKPGGSLKLSCAASGFTFSNYAMSWVRQTPEKRLEWVAYVSSGGDYIYYADTVKGRFIISRDNARNTLYLQMNSLRSEDTAMYYCARVYFGNSLDYWGQGTTLTVSS VL: DIVMTQSPSSLTVTAGEKVTLSCKSSQSLLNGGNQKNYLTWYQQRPGQPPKLLIYWASTRESGVPDRFTGSGSGTDFTLIISSVQAEDLAVYYCQNDYYYPWTFGGGTKLEIK | 5.92 nM | 57.9 % of control | 17.8 nM | 78.9 % of control | 0.99 nM | 92.3% | 5 nM | 4600 | 83900 | 73.8 nM | – | – | –
chAb29 (antibody, V domains shown) VH: EVLLQQSGPELVKPGASVKIPCKASGYTLTDHSMDWVKQSHGKSLEWIGNILPNNGGNIYNQKFRGKATLTVDKSSSTAYMELRSLTSEDTAVYNCARGHYGNSFAYWGQGTLVIVS VL: DIVMTQSPSSLTVRAGEKVTIYCKSSQSLFNSGNQKNYLTWYQQKPGQPPKLLIYWASTRESGVPHRFTGSGSGTDFTLTISSMQADDLATYYCQNGYFFPYTFGGGTKLEIK | 5.27 nM | 60.9 % of control | 12.7 nM | 67.8 % of control | 0.91 nM | 93.5% | 6.63 nM | 5640 | 63400 | – | – | – | –
chAb20 (antibody, V domains shown) VH: EVMLVESGGGLVKPGGSLKLSCVASGFTFSSYTMSWVRQTPEKRLEWVATIIGGYGNTYYSDSVKGRITISRDSAKNTLYLQMISLRSEDTALYYCTRLGQTQRNAMDYWGQGTSVTVSS VL: DILMTQSPSSLSVSAGEKVTMNCKSSQSLLNSGNQKNYLAWYQQKPGQPPKLLIYGASTRESGVPDRFTGSGSGTDFTLTISSVQAEDLAVYYCQNDYYYPFTFGAGTKLEL | 4.14 nM | 62.9 % of control | 8.82 nM | 73 % of control | 0.47 nM | 92.8% | 3.88 nM | 6260 | 65700 | 42.9 nM | – | – | –
